Measurements published in patent US20230125550A1 (ARCELLX, published 2023).
Positions count from the first letter of the chain named.

T1: recombinant human CD123-Fc (human, UniProt P26951 19-305)
T1 construct: not shown: Fc part of CD123-Fc
T1 sequence: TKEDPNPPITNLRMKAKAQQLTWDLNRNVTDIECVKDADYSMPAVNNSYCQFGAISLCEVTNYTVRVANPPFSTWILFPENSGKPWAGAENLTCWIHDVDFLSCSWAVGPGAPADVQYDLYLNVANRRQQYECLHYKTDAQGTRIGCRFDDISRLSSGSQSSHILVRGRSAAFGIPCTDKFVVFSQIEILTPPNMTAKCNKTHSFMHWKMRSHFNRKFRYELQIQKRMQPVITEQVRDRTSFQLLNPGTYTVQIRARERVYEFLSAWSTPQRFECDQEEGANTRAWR

B1: SEQ ID NO 702 (designed binder)
chain: MGSWEEFYDRLGAIFARLHALGGSEAELAAFEKEIAAFESELQAYKGKGNPEVEDLRWYAADIRMILQAYRHN
B2: SEQ ID NO 703 (designed binder)
chain: B1 chain with E5V, G12H, F15Y, A16F, H19L, M65L, I66V
B3: SEQ ID NO 704 (designed binder)
chain: B1 chain with E5K, Y8D, D9N, G12Y, F15E, A16D, H19R, D55H
B4: SEQ ID NO 730 (designed binder)
chain: MGSWWEFEDRLMAIYDRLYALGGSEAELAAFEKEIAAFESELQAYKGKGNPEVEYLRAEAALIRETLQAYRHN
B5: SEQ ID NO 731 (designed binder)
chain: B4 chain with W5F, M12Y, Y15E, A58W, E59G, L62T, E65D, T66E
B6: SEQ ID NO 736 (designed binder)
chain: MGSWFEFVDRLEAIEMRLFALGGSEAELAAFEKEIAAFESELQAYKGKGNPEVELLRWRAAMIRYDLQAYRHN
B7: SEQ ID NO 924 (designed binder)
chain: MGSWLVFKDELAGIKNYLEALGGSEAELATFEQDIAWFEQWLQNYKGKGNPEVEALRKEAAAIRDELQAYRHN
B8: SEQ ID NO 925 (designed binder)
chain: MGSWKTFKIELAGIKLELEALGGSEAELAGFENAIAQFESSLQYYKGKGNPEVEALRKEAAAIRDELQAYRHN
B9: SEQ ID NO 923 (designed binder)
chain: MGSWVNFKTHLARIKVHLEALGGSEAELALFEHDIANFEQVLQQYKGKGNPEVEALRKEAAAIRDELQAYRHN
B10: SEQ ID NO 934 (designed binder)
chain: MGSWSEFWFRLHAILYRLQALGGSEAELAAFEKEIAAFESELQAYKGKGNPEVETLRDAAAEIRVALQAYRHN
B11: SEQ ID NO 922 (designed binder)
chain: MGSWWGFKVNLAWIKWKLEALGGSEAELAYFELWIANFEHSLQEYKGKGNPEVEALRKEAAAIRDELQAYRHN
B12: SEQ ID NO 939 (designed binder)
chain: MGSWWEFHVRLRAIEYRLEALGGSEAELAAFEKEIAAFESELQAYKGKGNPEVEQLRLIAANIRHLLQAYRHN
B13: SEQ ID NO 942 (designed binder)
chain: B12 chain with H8Q, R12A, E19K, Q55N, L58Q, I59L, N62H, H65S, L66V
B14: SEQ ID NO 940 (designed binder)
chain: B12 chain with R12K, E19L, Q55D, L58Y, H65Q
B15: SEQ ID NO 943 (designed binder)
chain: B12 chain with H8Q, R12S, E19T, Q55E, L58Q, I59K, N62R, H65S
B16: SEQ ID NO 930 (designed binder)
chain: MGSWFEFNIRLHAIEYRLKALGGSEAELAAFEKEIAAFESELQAYKGKGNPEVEELRNYAASIRKLLQAYRHN
B17: SEQ ID NO 931 (designed binder)
chain: B16 chain with N8E, H12R, K19S, E55K, N58E, Y59L, S62E, K65Y, L66A
B18: SEQ ID NO 944 (designed binder)
chain: B16 chain with F5W, E15D, E55L, N58E, Y59K, S62Q, K65A, L66Q
B19: SEQ ID NO 945 (designed binder)
chain: MGSWWEFRVRLEAIDYRLKALGGSEAELAAFEKEIAAFESELQAYKGKGNPEVEYLRMKAATIRAILQAYRHN
B20: SEQ ID NO 932 (designed binder)
chain: B16 chain with N8K, H12Y, E15Q, K19S, Y59L, S62E, K65H, L66S
B21: SEQ ID NO 926 (designed binder)
chain: B19 chain with R8K, E12S, D15Q, K19Y, Y55A, M58E, K59Q, T62L, A65T
B22: SEQ ID NO 933 (designed binder)
chain: B12 chain with H8K, E19S, Q55E, L58V, I59L, N62S, H65I, L66H
B23: SEQ ID NO 927 (designed binder)
chain: MGSWWEFHIRLHAINYRLAALGGSEAELAAFEKEIAAFESELQAYKGKGNPEVEALRELAAKIRGDLQAYRHN
B24: SEQ ID NO 950 (designed binder)
chain: MGSWWEFNMRLSAIKYRLYALGGSEAELAAFEKEIAAFESELQAYKGKGNPEVEILRRLAADIRERLQAYRHN
B25: SEQ ID NO 949 (designed binder)
chain: B24 chain with M9V, K15R, Y19L, I55D, R58A, L59S, D62Q, E65A, R66M
B26: SEQ ID NO 929 (designed binder)
chain: B23 chain with H8K, H12Y, N15E, A19N, E58A, L59K, K62Q, G65Y, D66N
B27: SEQ ID NO 928 (designed binder)
chain: B23 chain with H8Q, I9V, H12R, N15Q, A19N, A55Y, E58G, K62Q, G65F
B28: SEQ ID NO 935 (designed binder)
chain: B10 chain with S5I, F9V, H12N, Q19Y, T55A, A59S, V65R, A66W
B29: SEQ ID NO 921 (designed binder)
chain: MGSWHEFLRRLLAIEMRLYALGGSEAELAAFEKEIAAFESELQAYKGKGNPEVEHLRVRAASIRQMLQAYRHN
B30: SEQ ID NO 946 (designed binder)
chain: B19 chain with W5Y, R8D, V9I, D15K, K19S, M58K, T62V, A65S, I66M
B31: SEQ ID NO 948 (designed binder)
chain: B24 chain with M9V, S12Q, Y19S, I55D, R58K, L59T, D62H, E65W, R66Q
B32: SEQ ID NO 947 (designed binder)
chain: B19 chain with V9I, D15W, K19H, Y55D, M58I, K59F, T62N, A65S, I66K
B33: SEQ ID NO 911 (designed binder)
chain: MGSWHEFRWRLFAIWQRLHALGGSEAELAAFEKEIAAFESELQAYKGKGNPEVEWLRLDAALIRVMLQAYRHN
B34: SEQ ID NO 920 (designed binder)
chain: B33 chain with H5Y, F12H, Q16L, H19G, L58Q, L62Q, V65Y, M66I
B35: SEQ ID NO 936 (designed binder)
chain: B24 chain with W5V, N8W, M9I, S12N, Y19L, I55K, R58Q, L59D, R66L
B36: SEQ ID NO 938 (designed binder)
chain: B12 chain with H8Y, V9L, E15S, E19Q, Q55G, L58Q, I59D, N62E, H65K
B37: SEQ ID NO 937 (designed binder)
chain: MGSWTEFWWRLSAIVYRLNALGGSEAELAAFEKEIAAFESELQAYKGKGNPEVEELRDMAADIRSLLQAYRHN

The binders below were run against T1, recombinant human CD123-Fc (assay: phage ELISA, A450 target/A450 IgG1-Fc).
Procedure, shortened: (§1)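 The ELISA ratio divides target absorbance by IgG1-Fc absorbance and averages this over all screened wells holding a given clone. Phage came from phagemid colonies picked from panning output and were rescued with VCSM13 helper phage in 96-well format. After coating with 1.3 microg/ml goat anti-human IgG1-Fc antibody, wells were loaded with 5 nM recombinant human target or IgG1-Fc, then with 50 microl phage diluted 5× in ELISA blocking buffer, and bound phage were read at 450 nm using HRP-conjugated anti-M13 antibody.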

| Binder | ELISA_avg |
| --- | --- |
| B1 | 3.9 ratio |
| B2 | 4.8 ratio |
| B3 | 3.9 ratio |
| B4 | 15.3 ratio |
| B5 | 4.7 ratio |
| B6 | 7.1 ratio |

What follows are binders tested against HER2 (Homo sapiens (Human), UniProt P04626 23-652) (assay: phage ELISA, A450 target/A450 IgG1-Fc).
Procedure, shortened: as §1

| Binder | ELISA_avg |
| --- | --- |
| B7 | 3.28 ratio |
| B8 | 4.95 ratio |
| B9 | 7.91 ratio |
| B10 | 14.8 ratio |
| B11 | 8.69 ratio |
| B12 | 5.48 ratio |
| B13 | 6.33 ratio |
| B14 | 4.56 ratio |
| B15 | 9.61 ratio |
| B16 | 7.86 ratio |
| B17 | 7.75 ratio |
| B18 | 9.75 ratio |
| B19 | 6.82 ratio |
| B20 | 13.1 ratio |
| B21 | 5.17 ratio |
| B22 | 10.1 ratio |

| Binder | ELISA_avg |
| --- | --- |
| B23 | 11.9 ratio |
| B24 | 3.08 ratio |
| B25 | 6.73 ratio |
| B26 | 4.49 ratio |
| B27 | 14.4 ratio |
| B28 | 3.91 ratio |
| B29 | 8.15 ratio |
| B30 | 5.35 ratio |
| B31 | 5.23 ratio |
| B32 | 8.04 ratio |
| B33 | 10 ratio |
| B34 | 7.18 ratio |
| B35 | 10.6 ratio |
| B36 | 5.1 ratio |
| B37 | 5.76 ratio |
